From publication PMC12029569, “Exploring the G-Quadruplex Formation of AS1411 Derivatives”

Columns and labels:
Conditions in all cases: label: 5'-Cy5; G-quadruplex
NCL RBD2,3 [1] = molecular target: T1, NCL RBD2,3 (UniProt P19338 393-560); assay: fluorescence titration; Hill n 2.08; K100: 100 mM KCl, 10 mM lithium cacodylate pH 7.2; 100 nM Cy5-oligonucleotide pre-annealed, 5 min equilibration per protein addition; temperature not stated
NCL RBD1,2 [2] = molecular target: T2, NCL RBD1,2 (UniProt P19338 307-466); assay: fluorescence titration; Hill n 0.20; SD exceeds Kd; K100: 100 mM KCl, 10 mM lithium cacodylate pH 7.2; 100 nM Cy5-oligonucleotide pre-annealed, 5 min equilibration per protein addition; temperature not stated
T2 sequence (P19338 307-466): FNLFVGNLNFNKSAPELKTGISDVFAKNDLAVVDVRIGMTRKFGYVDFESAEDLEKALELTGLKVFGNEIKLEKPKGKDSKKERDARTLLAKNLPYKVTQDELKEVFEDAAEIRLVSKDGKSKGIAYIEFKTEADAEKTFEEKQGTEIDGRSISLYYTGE

NCL RBD1,2 [3] = molecular target: T2, NCL RBD1,2; assay: fluorescence titration; Hill n 0.24; K100: 100 mM KCl, 10 mM lithium cacodylate pH 7.2; 100 nM Cy5-oligonucleotide pre-annealed, 5 min equilibration per protein addition; temperature not stated
NCL RBD1,2 [4] = molecular target: T2, NCL RBD1,2; assay: fluorescence titration; Hill n 1.89; K100: 100 mM KCl, 10 mM lithium cacodylate pH 7.2; 100 nM Cy5-oligonucleotide pre-annealed, 5 min equilibration per protein addition; temperature not stated
NCL RBD2,3 [5] = molecular target: T1, NCL RBD2,3; assay: fluorescence titration; no measurable interaction; Hill fit not possible; up to 50 nM protein; K100: 100 mM KCl, 10 mM lithium cacodylate pH 7.2; 100 nM Cy5-oligonucleotide pre-annealed, 5 min equilibration per protein addition; temperature not stated
NCL RBD1,2 [6] = molecular target: T2, NCL RBD1,2; assay: fluorescence titration; Hill n 0.31; SD exceeds Kd; K100: 100 mM KCl, 10 mM lithium cacodylate pH 7.2; 100 nM Cy5-oligonucleotide pre-annealed, 5 min equilibration per protein addition; temperature not stated
NCL RBD2,3 [7] = molecular target: T1, NCL RBD2,3; assay: fluorescence titration; Hill n 0.54; K100: 100 mM KCl, 10 mM lithium cacodylate pH 7.2; 100 nM Cy5-oligonucleotide pre-annealed, 5 min equilibration per protein addition; temperature not stated
NCL RBD1,2 [8] = molecular target: T2, NCL RBD1,2; assay: fluorescence titration; Hill n 0.37; main text prints 4.6 nM (conflict with Table S4); K100: 100 mM KCl, 10 mM lithium cacodylate pH 7.2; 100 nM Cy5-oligonucleotide pre-annealed, 5 min equilibration per protein addition; temperature not stated
NCL RBD1,2 [9] = molecular target: T2, NCL RBD1,2; assay: fluorescence titration; Hill n 0.33; K100: 100 mM KCl, 10 mM lithium cacodylate pH 7.2; 100 nM Cy5-oligonucleotide pre-annealed, 5 min equilibration per protein addition; temperature not stated
NCL RBD2,3 [10] = molecular target: T1, NCL RBD2,3; assay: fluorescence titration; Hill n 0.49; SD exceeds Kd; K100: 100 mM KCl, 10 mM lithium cacodylate pH 7.2; 100 nM Cy5-oligonucleotide pre-annealed, 5 min equilibration per protein addition; temperature not stated

T1 sequence (P19338 393-560): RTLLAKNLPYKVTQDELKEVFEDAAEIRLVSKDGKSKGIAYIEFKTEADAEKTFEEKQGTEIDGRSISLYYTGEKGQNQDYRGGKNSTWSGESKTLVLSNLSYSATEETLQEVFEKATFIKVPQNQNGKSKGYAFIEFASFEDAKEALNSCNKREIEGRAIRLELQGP

GGTGGTGGTGGTTTGGTGGTGGTGG (structured_DNA) [Cy5-AT14-T1]
Kd (NCL RBD2,3 [1]): 2.16 ± 0.37 nM
Kd (NCL RBD1,2 [2]): 1.4 nM

TGGTGGTGGTGGTTTGGTGGTGGTGGT (structured_DNA) [Cy5-AT14T-T1]
Kd (NCL RBD1,2 [3]): 3.39 ± 0.58 nM

TGGTGGTGGTGGTTGGTGGTGGTGGT (structured_DNA) [Cy5-AT14T-T2]
Kd (NCL RBD1,2 [4]): 1.48 ± 0.2 nM
binding result (NCL RBD2,3 [5]): no binding

TGGTGGTGGTGGTTTTGGTGGTGGTGGT (structured_DNA) [Cy5-AT14T]
Kd (NCL RBD1,2 [6]): 8.34 ± 13.2 nM
binding result (NCL RBD2,3 [5]): no binding

GGTGGTGGTGGTTTTGGTGGTGGTGG (structured_DNA) [Cy5-AT14]
Kd (NCL RBD2,3 [7]): 0.08 ± 0.01 nM
Kd (NCL RBD1,2 [8]): 0.46 ± 0.12 nM

GGTGGTGGTGGTTGGTGGTGGTGG (structured_DNA) [Cy5-AT14-T2]
Kd (NCL RBD1,2 [9]): 0.01 ± 0.01 nM
Kd (NCL RBD2,3 [10]): 5.37 ± 7.21 nM
